Data from article doi:10.1101/2025.08.29.673170.

Biological target: F-actin (pre-polymerized actin filaments) (UniProt P68135)
Experiment: co-sedimentation

duty ratio KABD = kon/(kon + koff)	Kd [µM]	Substance
0.14	–	10xHis-SNAP-EzrABD (domain or fragment)
0.1	10	10xHis-SNAP-EzrABD K577A (domain or fragment)
0.71	0.4	10xHis-SNAP-UtrABD (from UniProt P46939 1-261) (domain or fragment)
